According to the supplement of paper PMC6757056:
± gives the standard deviation of the averaged measurements.

B1: library; a variant is named by its letters at N, in order (parent)
chain: GCUGUCACCGAGAAACUGUGAAGUAUAUCUUAAACCUGGGCACUUAAAAGAUAUAUGGAGUUAGUAGUGCAACCUGCUCGGUCUGAUGAGUCCNNNNNNGGACGAAACAGC

Key:
cyclic di-GMP [1] = variants of: B1; assay: FACS-Seq fitted mean relative fluorescence mCherry/BFP without ligand (log10 relative fluorescence); HEK293T; ligand: cyclic di-GMP (c-di-GMP-II aptamer); higher = higher reporter protein expression; conditions: ligand present: no
Experimental: (§1)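 Hammerhead (sTRSV) ribozyme switch libraries with a ligand aptamer grafted on stem I and a randomized N4-6 loop II, cloned into the 3' UTR of mCherry and transiently transfected into HEK293T cells; RNA-Seq 72 h post transfection with ligand added 1 h before transfection; RNA read count / plasmid DNA read count normalized to the non-cleaving sTRSVctl (x100), log10; sequences with >100 DNA reads. FACS-Seq: lentiviral library sorted into 6 bins after 48 h ligand, log-normal fit mean of mCherry/BFP scaled to controls. Printed sequences are partial switch sequences.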

cyclic di-GMP [2] = variants of: B1; assay: normalized RNA/DNA level without ligand (relative to sTRSVctl = 100) (log10 (% of sTRSVctl)); HEK293T; ligand: cyclic di-GMP (c-di-GMP-II aptamer); higher = less ribozyme self-cleavage, higher mRNA level; conditions: reporter: mCherry (pCS4076), ligand present: no
Experimental: as §1

cyclic di-GMP [3] = variants of: B1; assay: FACS-Seq fitted mean relative fluorescence mCherry/BFP with ligand (log10 relative fluorescence); HEK293T; ligand: cyclic di-GMP (c-di-GMP-II aptamer); ligand concentration (+) FACS-Seq: 1 mM; higher = higher reporter protein expression; conditions: ligand present: yes
Experimental: as §1

cyclic di-GMP [4] = variants of: B1; assay: normalized RNA/DNA level with ligand (relative to sTRSVctl = 100) (log10 (% of sTRSVctl)); HEK293T; ligand: cyclic di-GMP (c-di-GMP-II aptamer); ligand concentration (+) RNA-Seq: 1 mM; higher = less ribozyme self-cleavage, higher mRNA level; conditions: reporter: mCherry (pCS4076), ligand present: yes
Experimental: as §1

Variant	FACS-Seq fitted mean (log10) (cyclic di-GMP [1])	normalized RNA/DNA level without ligand (log10) (cyclic di-GMP [2])	FACS-Seq fitted mean (log10) (cyclic di-GMP [3])	normalized RNA/DNA level with ligand (log10) (cyclic di-GMP [4])
GUUAAG	-0.00319 ± 0.05	1.55 ± 0.05	0.189 ± 0.031	1.72 ± 0.098
CGUAAU	-0.374 ± 0.0044	1.36 ± 0.17	-0.0343 ± 0.11	1.53 ± 0.093
CGUAAA	-0.605 ± 0.042	1.23 ± 0.081	-0.386 ± 0.039	1.34 ± 0.11
ACGAUU	-0.694 ± 0.056	1.2 ± 0.13	-0.341 ± 0.036	1.41 ± 0.19
UAUAUC	-0.579 ± 0.13	1.71 ± 0.018	-0.583 ± 0.2	1.85 ± 0.12
UCACUU	-0.404 ± 0.091	1.611 ± 0.0095	-0.0521 ± 0.15	1.77 ± 0.14
CCGGCU	-0.0371 ± 0.0037	1.74 ± 0.033	0.118 ± 0.024	1.89 ± 0.077
AGAUGA	-0.545 ± 0.04	1.4 ± 0.13	-0.336 ± 0.063	1.61 ± 0.14
GCACAC	-0.421 ± 0.06	1.55 ± 0.034	0.00625 ± 0.1	1.69 ± 0.13
UGAGUG	-0.0499 ± 0.13	1.7246 ± 0.00091	0.259 ± 0.047	1.83 ± 0.091
GAAAAG	-0.45 ± 0.058	1.575 ± 0.0029	-0.228 ± 0.032	1.74 ± 0.14
GAUCAA	-0.23 ± 0.07	1.57 ± 0.054	0.0757 ± 0.065	1.75 ± 0.052
GAUCAU	-0.326 ± 0.12	1.63 ± 0.051	-0.0439 ± 0.023	1.79 ± 0.14
GCUGCG	-1.43 ± 0.31	1.789 ± 0.016	-1.28 ± 0.14	1.87 ± 0.13
AUCGGA	-0.605 ± 0.038	1.53 ± 0.043	-0.31 ± 0.055	1.7 ± 0.086
CAAAGU	0.000886 ± 0.21	1.7 ± 0.032	0.204 ± 0.087	1.79 ± 0.12
CAAUAU	-0.659 ± 0.028	1.49 ± 0.061	-0.365 ± 0.019	1.67 ± 0.11
UCGGAU	-0.57 ± 0.024	1.43 ± 0.097	-0.239 ± 0.0084	1.68 ± 0.06
ACGCGG	-0.429 ± 0.041	1.69 ± 0.034	-0.107 ± 0.078	1.8 ± 0.13
CAAAAU	-0.237 ± 0.17	1.45 ± 0.11	0.0784 ± 0.017	1.65 ± 0.085
GCUGGA	-0.599 ± 0.036	1.49 ± 0.085	-0.196 ± 0.038	1.71 ± 0.099
AAUGGC	-0.236 ± 0.066	1.65 ± 0.033	0.153 ± 0.011	1.81 ± 0.061
UCCAAA	-0.284 ± 0.0034	1.57 ± 0.076	0.111 ± 0.079	1.75 ± 0.12
AAUGAG	-0.328 ± 0.065	1.54 ± 0.048	0.0671 ± 0.032	1.71 ± 0.093

Variant	FACS-Seq fitted mean (log10) (cyclic di-GMP [1])	normalized RNA/DNA level without ligand (log10) (cyclic di-GMP [2])	FACS-Seq fitted mean (log10) (cyclic di-GMP [3])	normalized RNA/DNA level with ligand (log10) (cyclic di-GMP [4])
GAUUAA	-0.0108 ± 0.066	1.55 ± 0.057	0.211 ± 0.1	1.74 ± 0.087
CGGUGU	-0.862 ± 0.11	1.68 ± 0.02	-0.65 ± 0.12	1.88 ± 0.14
GUUACU	-0.232 ± 0.064	1.75 ± 0.027	0.0991 ± 0.015	1.82 ± 0.13
CCCCUG	-0.147 ± 0.12	1.69 ± 0.045	0.154 ± 0.1	1.84 ± 0.097
CGGAGC	0.169 ± 0.11	1.61 ± 0.052	0.426 ± 0.022	1.79 ± 0.065
GCUUAG	-0.473 ± 0.076	1.638 ± 0.0094	-0.165 ± 0.16	1.79 ± 0.069
GCUACG	0.0942 ± 0.14	1.58 ± 0.017	0.353 ± 0.045	1.72 ± 0.1
UCUAAU	-0.491 ± 0.013	1.6 ± 0.017	-0.327 ± 0.062	1.78 ± 0.1
AUAGAA	-0.406 ± 0.06	1.39 ± 0.077	-0.217 ± 0.058	1.61 ± 0.093
UAUGAU	-0.525 ± 0.18	1.597 ± 0.0092	-0.0494 ± 0.041	1.79 ± 0.12
CGGCUU	-0.717 ± 0.062	1.5 ± 0.099	-0.63 ± 0.15	1.67 ± 0.062
UCCUCC	-0.766 ± 0.014	1.81 ± 0.047	-0.515 ± 0.021	1.91 ± 0.17
GACAAG	-0.339 ± 0.07	1.55 ± 0.029	-0.0999 ± 0.034	1.72 ± 0.084
AAAUUG	-0.199 ± 0.011	1.56 ± 0.096	-0.00914 ± 0.051	1.72 ± 0.097
CUACAC	-0.167 ± 0.016	1.699 ± 0.0052	0.0624 ± 0.12	1.83 ± 0.11
UUUCUU	0.255 ± 0.19	1.773 ± 0.014	0.428 ± 0.021	1.89 ± 0.066
ACUAAA	-0.416 ± 0.14	1.41 ± 0.045	-0.0324 ± 0.021	1.62 ± 0.088
CAACCU	-0.206 ± 0.19	1.56 ± 0.069	-0.0641 ± 0.21	1.74 ± 0.096
GCAAUG	-0.186 ± 0.0033	1.45 ± 0.14	0.131 ± 0.072	1.64 ± 0.069
GGUAUC	-0.466 ± 0.023	1.63 ± 0.018	-0.193 ± 0.022	1.79 ± 0.12
UGAAGU	-0.24 ± 0.081	1.59 ± 0.024	0.0885 ± 0.12	1.79 ± 0.12
CUGCGA	-0.33 ± 0.01	1.65 ± 0.024	0.0519 ± 0.0084	1.8 ± 0.095
CCGAGC	-0.204 ± 0.022	1.78 ± 0.059	0.0994 ± 0.021	1.88 ± 0.14
CGUGCA	-0.119 ± 0.16	1.68 ± 0.078	0.0822 ± 0.039	1.79 ± 0.1

Variant	FACS-Seq fitted mean (log10) (cyclic di-GMP [1])	normalized RNA/DNA level without ligand (log10) (cyclic di-GMP [2])	FACS-Seq fitted mean (log10) (cyclic di-GMP [3])	normalized RNA/DNA level with ligand (log10) (cyclic di-GMP [4])
CCAGAA	-0.598 ± 0.013	1.34 ± 0.14	-0.277 ± 0.015	1.58 ± 0.1
GCCCCU	0.163 ± 0.17	1.761 ± 0.0048	0.336 ± 0.019	1.89 ± 0.077
CAGCUG	0.189 ± 0.018	1.767 ± 0.0057	0.403 ± 0.038	1.84 ± 0.12
GCCGCU	-0.109 ± 0.1	1.72 ± 0.015	0.0767 ± 0.02	1.92 ± 0.09
UUUUCG	-0.162 ± 0.14	1.78 ± 0.035	0.00347 ± 0.15	1.9 ± 0.12
GCCGAU	-0.47 ± 0.078	1.55 ± 0.034	-0.231 ± 0.064	1.74 ± 0.1
AACAGA	-0.897 ± 0.023	1.39 ± 0.14	-0.683 ± 0.0078	1.59 ± 0.11
GUUUUU	-0.978 ± 0.05	1.715 ± 0.0068	-0.711 ± 0.12	1.87 ± 0.12
ACAUGG	-0.46 ± 0.077	1.44 ± 0.11	-0.227 ± 0.031	1.61 ± 0.11
AUUAAA	-0.425 ± 0.11	1.53 ± 0.048	-0.0171 ± 0.053	1.71 ± 0.12
AGCUUG	-0.0154 ± 0.14	1.59 ± 0.041	0.223 ± 0.0032	1.81 ± 0.14
CCCAGA	-0.192 ± 0.068	1.55 ± 0.021	0.0209 ± 0.061	1.74 ± 0.078
CUUAAU	-0.0367 ± 0.24	1.55 ± 0.096	0.142 ± 0.073	1.71 ± 0.1
UGACGC	-0.22 ± 0.01	1.73 ± 0.027	0.123 ± 0.016	1.84 ± 0.17
CACGGA	-0.398 ± 0.042	1.48 ± 0.092	0.0123 ± 0.14	1.72 ± 0.06
UACGCU	-0.169 ± 0.063	1.71 ± 0.032	0.108 ± 0.051	1.86 ± 0.098
AGGUAA	-0.299 ± 0.023	1.43 ± 0.034	-0.0992 ± 0.054	1.56 ± 0.17
GCAUAC	-0.0759 ± 0.13	1.42 ± 0.19	0.23 ± 0.036	1.6 ± 0.072
GUUAUG	-0.452 ± 0.02	1.57 ± 0.081	-0.0804 ± 0.023	1.78 ± 0.09
ACAAAU	-0.483 ± 0.17	1.37 ± 0.13	-0.291 ± 0.042	1.57 ± 0.08
UGAAAU	-0.0172 ± 0.1	1.66 ± 0.043	0.368 ± 0.014	1.84 ± 0.14
GCUAAU	-0.207 ± 0.11	1.56 ± 0.049	0.146 ± 0.04	1.74 ± 0.078
AAGGAA	-0.627 ± 0.048	1.35 ± 0.13	-0.409 ± 0.03	1.51 ± 0.069
ACAUAA	-0.3987 ± 0.0024	1.39 ± 0.12	-0.112 ± 0.0021	1.63 ± 0.063
